Assay results as given in patent publication US5336488A, “Method of treating or preventing mastitis in animals with involuting mammary glands by administering recombinant cytokines” (American Cyanamid Company, priority 1992, dated 1994).

Key:
[1] = test system: S. aureus; test: Prevention of S. aureus mastitis in lactating animals; assay type: in vivo, S. aureus (in lactating Holstein dairy cattle); conditions: for % CONTROL / % INFECTED: vs Control 1; for protection from subsequent S. aureus challenge: intramammary infusion, Table 1; for most efficacious time of administration for protective effect: relative to S. aureus challenge
Description: This maximal protection correlates with the peak quantitative biological response for this cytokine. […] This also correlates with the peak quantitative biological response of this cytokine and also marks the qualitative increase in phagocytosis and inducible superoxide, FIG. 2D & 2E.
^1 Single intramammary infusion administered after the PM milking. A
total of 100 mammary glands from 22 different lactating Holstein dairy
^2 All glands are free of bacteria on 5 successive samples after the
AM milking prior to the initial infusion.
^3 The total dose in mass of protein is indicated. The biological
^4 Infusions of cytokines were administerd simultaneously with S.
aureus 0, 24 or 48 hours proir to challenge with 30-200 CFUs of S.
^5 Individual quarters are considered cured if the milk samples remai
free of S. aureus. for 14 days after intramammary challenge with of S.
^6 The % Control = (1 - {% Infected After Therapy divided by Infected
in Control Quarters)} × 100.
*Quarters in Control 1 are challenged with 250 CFUs of S. aureus..
Quarters in Control 2 are challenged with 30 CFUs of S. aureus.

[2] = Milk production in lactating glands after intramammary infusion or intramuscular injection; assay type: in vivo, bovine (lactating dairy cows); conditions: for decrease of milk production: FIG. 3A
Method: FIGS. 3(A-I): Milk Production After Intramammary Infusion or Intramuscular Injection of r-BoIL-2 into Lactating Dairy Cows
Mean milk production in kilograms +/- Standard Error is recorded for 8 lactating dairy cows after intramammary infusion of r-BoIL-2 or no treatment. Data is shown as a percentage of the average milk production (Standard Deviation) compared to the first five days prior to Treatment (mean for 100% production level ). Production after r-BoIL-2 intramammary infusion with total dosing amounting to 4.5 mg or 13.5 mg in quarters infected with S. aureaus is compared to infected, untreated cows for a 6 day time period, panel A. Similarly, production is also followed in 7 lactating injections of r-BoIL-2 at 2.5 μg/kg/day for 5 days and compared to 3 normal PBS injected controls, panel B. All cows are in mid to late stages of their second or third lactation at the time of r-BoIL-2 therapy. All effects on milk production are transient, returning to pre-treatment levels within 96 hours after cessation of treatment.
In vivo measurement of daily milk production is also monitored for both intramammary infusions and intramuscular injection. Cows are milked morning and evening and the milk weighed and recorded in total kilograms per day. The total dose of IL-2 administered per cow ranges from 2 to 96 mg. Single or multiple intramammary infusions of IL-2 have variable effects on individual animal's milk production based upon the total dose of r-BoIL-2 administered per day, FIG. 3 A (INTRAMAMMARY). Production decreases as much as 30-40% by the third infusion in the high dose animals (13.5 mg), whereas only a 12% decrease is observed at the 4.5 mg dose (not statistically different from time 0 production or control animals). […] This induction would be of great significance to assist in the morphological changes required during early lactation and serves to accelerate the protective mechanisms.

[3] = test system: IL-2 dependant BT-2 T cell line; test: Residual r-BoIL-2 bioactivity in dry cow gland secretions (BT-2 bioassay); assay type: in vivo, bovine
Method: FIGS. 4(A-B): Measurement of Residual r-BoIL-2 Bioactivity in Secretions from Dry Cow Glands Infused with r-BolL-2
Secretions from 4 quarters (4 different cows) are infused with 1 mg of r-BoIL-2 at drying-off (2 quarters) or not treated with r-BoIL-2 (2 quarters). Dry gland secretions are collected at time 0,72,144 and 240 hours after infusion. All samples shown are from the 72 hour time point and are diluted 1:50 and 1:200, and assayed for amount of biologically active r-BoIL-2 using the IL-2 dependant BT-2 T cell line, panel B. The BT-2 cell line is a bovine T cell line which requires IL-2 for growth. By measuring the degree of proliferation of this cell line, one directly measures the amount of biologically active IL-2 in a test media. Data is expressed as a mean ^3 H-thymidine incorporation +/- S.D. of triplicate samples of BT-2 cells for each of the individual numbered animals. […] A standard assay of various concentrations of r-BoIL-2 in 2% dry secretions is also shown in panel A as a positive control.
To specifically study the presence of cytokines after a single intramammary infusion into dry cows, […] from four different cows, are infused with 1 mg r-BoIL-2 at dry-off. […] Secretions from dry cow quarters treated with 1 mg of r-BoIL-2 are collected at 72, 144 and 240 hours after dry cow treatment. As with the milk, a 1:50 dilution of dry secretion samples is made and these solutions assayed by the bioassay using BT-2 and compared to r-BoIL-2 diluted in media.

[4] = test system: PMNs from mammary glands early in involution; test: Phagocytic activity of cells from dry cow secretions after cytokine treatment; assay type: in vivo, bovine (Holstein dairy cattle); conditions: treatment with IL-2
Method: FIG. 5: Phagocytic Ability of PMNs After Cytokine Administration from Mammary Glands Early in Involution
A total of 4 mammary glands from 2 Holstein dairy cattle just entering the dry period are used. All quarters had been infected with S. aureaus for 4-6 weeks prior to treatment. Two of the quarters are treated with Cefa-Dri® and 2 quarters are treated with Cefa-Dri®+1 mg bovine IL-2 by intramammary infusion immediately following the last milking prior to drying-off. Dry cow secretions are then collected at day 3 and day 6 of the dry-off period and the number of viable somatic cells counted on a Coulter® with a C256 Channelyzer. The total percentage of phagocytosis by PMNs is quantitatively measured by flow cytometry by measuring the percentage of cells ingesting 2μ fluorescent beads.
Somatic cells are isolated from mammary gland lavages on days 3 and 6 after treatment with Cefa-Dri® plu6 IL-2 or Cefa-Dri® alone. The cells are incubated with fluorescent latex micropheres and analyzed on the flow cytometer for their ability to phagocytize the beads.

B1: recombinant bovine interleukin-1 (protein, UniProt P09428 114-266, looked up)
Interleukin-1 beta: APVQSIKCKLQDREQKSLVLASPCVLKALHLLSQEMNREVVFCMSFVQGEERDNKIPVALGIKDKNLYLSCVKKGDTPTLQLEEVDPKVYPKRNMEKRFVFYKTEIKNTVEFESVLYPNWYISTSQIEERPVFLGHFRGGQDITDFRMETLSP
notes: recombinant bovine interleukin-1, obtained from IMMUNEX Corp. Seattle, WA
[1]; 1 μg, 0 hrs
  % CONTROL: 87%
  % INFECTED: 13%
[1]; 1 μg, -24 hrs
  % CONTROL: 100%
  % INFECTED: 0%
[1]; 1 μg, -48 hrs
  % CONTROL: 78%
  % INFECTED: 22%
[1]
  protection from subsequent S. aureus challenge: capable of protecting the host from subsequent S. aureus challenge
  most efficacious time of administration for protective effect: most efficacious if administered 24 hours prior to S. aureus challenge

B2: recombinant bovine interleukin-2 (protein, UniProt P05016 21-155, looked up)
Interleukin-2: APTSSSTGNTMKEVKSLLLDLQLLLEKVKNPENLKLSRMHTFDFYVPKVNATELKHLKCLLEELKLLEEVLNLAPSKNLNPREIKDSMDNIKRIVLELQGSETRFTCEYDDATVNAVEFLNKWITFCQSIYSTMT
notes: recombinant bovine interleukin-2, obtained from IMMUNEX Corp. Seattle, WA
[2]; intramammary or intramuscular r-BoIL-2
  time to return of milk production to pre-treatment levels after cessation of treatment: ≤ 96 h
[2]; intramammary, 4.5 mg, not statistically different from time 0 or control
  decrease of milk production: 12%
[2]; intramammary, 13.5 mg, by the third infusion
  decrease of milk production: 30-40%
[2]; intramammary, total dose less than 4.5 mg
  effect on milk production: No statistically significant effect on milk production
[3]; 1 mg intramammary at dry-off, 72 hours after infusion, 1:50 dilution
  detectable r-BoIL-2 bioactivity in dry gland secretions: less than 0.024 .eta.g/ml
[3]; 1 mg intramammary at drying-off, 72, 144, 240 hours
  residual r-BoIL-2 bioactivity in secretions: No r-BoIL-2 activity could be detected at any time point
[3]; after 3 days, FIG. 4
  biologically active IL-2 in dry cow secretions: no biologically active IL-2 is detected after 3 days
[1]; 1 mg, 0 hrs
  % CONTROL: 23%
  % INFECTED: 77%
[1]; 1 mg, -24 hrs
  % CONTROL: 89%
  % INFECTED: 11%
[1]; 1 mg, -48 hrs
  % CONTROL: 63%
  % INFECTED: 37%
[1]
  protection from subsequent S. aureus challenge: capable of protecting the host from subsequent S. aureus challenge
  most efficacious time of administration for protective effect: most efficacious if administered 48 hours prior to S. aureus challenge
[4]
  phagocytic activity of cells of the dry gland: seems to enhance the phagocytic activity of cells of the dry gland
